In patent publication US20240229003A1:

Molecular target: LGR6 (UniProt Q9HBX8)
Assay: cell-based or functional assay

Sequence of UniProt Q9HBX8 (Q9HBX8 25-967): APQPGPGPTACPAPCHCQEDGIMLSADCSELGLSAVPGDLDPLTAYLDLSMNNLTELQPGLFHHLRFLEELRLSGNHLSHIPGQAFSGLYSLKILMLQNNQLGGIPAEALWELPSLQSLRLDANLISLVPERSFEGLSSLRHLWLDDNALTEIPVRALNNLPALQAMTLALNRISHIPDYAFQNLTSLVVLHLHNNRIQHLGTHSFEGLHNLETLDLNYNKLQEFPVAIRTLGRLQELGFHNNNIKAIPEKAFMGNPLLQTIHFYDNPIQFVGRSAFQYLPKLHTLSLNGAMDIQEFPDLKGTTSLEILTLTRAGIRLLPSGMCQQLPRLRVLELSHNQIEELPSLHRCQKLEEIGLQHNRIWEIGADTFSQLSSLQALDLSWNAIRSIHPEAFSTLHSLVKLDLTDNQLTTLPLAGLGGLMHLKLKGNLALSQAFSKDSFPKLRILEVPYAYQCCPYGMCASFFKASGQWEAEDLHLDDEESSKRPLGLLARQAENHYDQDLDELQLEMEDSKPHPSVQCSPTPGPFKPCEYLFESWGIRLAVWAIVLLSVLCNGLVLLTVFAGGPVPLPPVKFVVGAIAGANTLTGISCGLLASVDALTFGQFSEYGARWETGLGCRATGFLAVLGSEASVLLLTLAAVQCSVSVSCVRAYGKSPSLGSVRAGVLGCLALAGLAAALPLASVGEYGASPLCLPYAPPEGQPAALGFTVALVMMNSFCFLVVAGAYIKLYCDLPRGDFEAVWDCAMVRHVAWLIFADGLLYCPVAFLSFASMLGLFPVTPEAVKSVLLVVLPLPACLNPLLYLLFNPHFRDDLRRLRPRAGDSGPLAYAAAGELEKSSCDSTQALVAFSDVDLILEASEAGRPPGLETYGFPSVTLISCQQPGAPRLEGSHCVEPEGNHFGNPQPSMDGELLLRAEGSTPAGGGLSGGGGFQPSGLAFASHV

Substance “MBP-RSPO1-MMAE (from UniProt Q2MKA7 21-145)” has an IC50 of cell killing on LGR6-overexpressing HEK-LGR6-2 cells (10 days exposure, CCK-8 viability) of 0.08 nM and a fold potency of killing, HEK-LGR6-2 cells against empty vector-transfected HEK-pcDNA cells of 12 fold.
